Numbering of substitutions follows the chain as printed. Numbers in names are those of the source.
B1: wild-type ERT2: ERT2 with G400V/M543A/L544A/V595A, SEQ ID NO: 3; benchmark construct (protein)
chain: SAGDMRAANLWPSPLMIKRSKKNSLALSLTADQMVSALLDAEPPILYSEYDPTRPFSEASMMGLLTNLADRELVHMINWAKRVPGFVDLTLHDQVHLLECAWLEILMIGLVWRSMEHPVKLLFAPNLLLDRNQGKCVEGMVEIFDMLLATSSRFRMMNLQGEEFVCLKSIILLNSGVYTFLSSTLKSLEEKDHIHRVLDKITDTLIHLMAKAGLTLQQQHQRLAQLLLILSHIRHMSNKGMEHLYSMKCKNVVPLYDLLLEAADAHRLHAPTSRGGASVEETDQSHLATAGSTSSHSLQKYYITGEAEGFPATA
B2: SB09657: ERT2 mutant transcriptional switch construct pSFFV: ZF10-1_p65_ERT2 domain (Table 23) (protein)
chain: B1 chain with L73I, L103M, N132D, S182P, H243L
modifications: ERT2 domain of ZF10-1_p65_ERT2 construct
B3: SB09642: ERT2 mutant transcriptional switch construct pSFFV: ZF10-1_p65_ERT2 domain (Table 23) (protein)
chain: B1 chain with L103M, L128V, N132D, M140L, S182P, H243L
modifications: ERT2 domain of ZF10-1_p65_ERT2 construct
B4: SB09626: ERT2 mutant transcriptional switch construct pSFFV: ZF10-1_p65_ERT2 domain (Table 23) (protein)
chain: B1 chain with L73I, N132D, M140L, S182P, H243L
modifications: ERT2 domain of ZF10-1_p65_ERT2 construct
B5: SB09652: ERT2 mutant transcriptional switch construct pSFFV: ZF10-1_p65_ERT2 domain (Table 23) (protein)
chain: B1 chain with L73I, L110V, N132D, M140L, S182P, M236A, H243L
modifications: ERT2 domain of ZF10-1_p65_ERT2 construct

Legend:
[1] = cited from earlier work; for estimated concentration in the brain, tissue, organs, and solid tumors / estimated concentration in the serum: tamoxifen orally 20 mg/day
U87MG: 1066 cells = test: Modified ER-LBD validation in U87MG with mCherry reporter; type: cell-based; conditions: SB01066 reporter
Description: About 16 hours before transduction 100k U87MG: 1066 cells were seeded into 16 wells in 12 well plate format. During transduction, cells in each well were transduced with 100k pg of virus of ERT2 variant constructs. After transduction, cells were split into 50k cells per well in a 24 well plate format, and treated with drug-free media or a range of endoxifen or 4-OHT drug conditions. About two days after treatment of cells with endoxifen or 4-OHT, cells were collected and mCherry reporter expression was quantified by flow cytometry.
Screening of the modified ER-LBD construct library identified a subset of ERT2 variants that were sensitive to endoxifen at 1 nM. Among this subset, 15 variants (Table 19) were validated in U87MG cells for their ability to activate an mCherry reporter (SB01066; FIG. 14B) at a range of concentrations of 0 pM, 10 pM, 50 pM, 100 pM, and 1 nM of endoxifen (FIG. 15A) and 4-OHT (FIG. 15B). Expression of mCherry was quantified about […] after treatment with endoxifen or 4-OHT.
Select ERT2 variants (Table 20) from the previous screens were further tested for sensitivity to endoxifen and 4-OHT, compared to wild-type ERT2. […] Fold activation was calculated by gMFI mCherry levels of each test condition divided by gMFI mCherry levels of U87MG cells transduced with the reporter (SB01066).

[2] = tested on: U87MG: 1066 reporter cell line; test: ERT2 mutant transcriptional switch activity, mCherry reporter; type: cell-based; conditions: range of endoxifen concentrations
Description: FIG. 26A depicts constructs and experimental methods for evaluating exemplary ERT2 mutant transcriptional switches. U87MG cells were transduced with the mCherry reporter construct SB01066, comprising synthetic promoter comprising a 4×ZF-10 zinc finger binding site (SEQ ID NO: 59) linked to a minimal promoter operably linked to an mCherry encoding sequence. This generated a U87MG: 1066 reporter cell line used for assessing transcriptional switch activity of ERT2 transcriptional switch constructs.
25k U87MG: 1066 reporter transduced line was transduced at a MOI of 1 with various ERT2 transcriptional switch constructs having the following structure: pSFFV: ZF10-1 (zinc finger DNA binding domain, SEQ ID NO: 84)_TCR linker (SEQ ID NO: 86)_p65 (transcriptional activation domain, SEQ ID NO: 64)_[…] linker (SEQ ID NO: 88)_ERT2 domain. The ERT2 mutants included a number of amino acid substitutions in addition to the “WT ERT2” mutations G400V/M543A/L544A/V595A.
The next day, cells were split into no drug or drug titration conditions to evaluate performance at a range of endoxifen and estradiol concentrations. Performance of each ERT2 mutant transcriptional switch was evaluated by their ability to translocate and bind to the zinc finger binding site upstream of mCherry and initiate mCherry expression.
The background normalized ND (0) conditions were divided by the average NV gMFI mCherry value in order to reflect any basal activity seen by each mutant. FIG. 26C depicts induced mCherry expression plotted against basal activity for each of the tested ERT2 transcriptional switch constructs.

[3] = tested on: U87MG: 2357 reporter cell line; test: ERT2 mutant transcriptional switch inducing an IL-12 payload (IL-12p70 ELISA); type: cell-based; conditions: 72 hours
Description: FIG. 28A depicts constructs and experimental methods for evaluating exemplary ERT2 mutant transcriptional switches for inducing expression of an IL-12 payload. U87MG cells were transduced with construct SB02357, comprising synthetic promoter comprising a 4×ZF-10 zinc finger binding site (SEQ ID NO: 59) linked to a minimal promoter operably linked to an IL-12 encoding sequence. This generated a U87MG: 2357 reporter cell line used for assessing the ability of ERT2 transcriptional switch constructs to activate transcription of the IL-12 payload in a ligand-dependent manner.
25k U87MG: 2357 IL-12 payload transduced line was transduced with MOI of 1 of the ERT2 constructs SB03422, SB06149, SB09626, SB09642, SB09652, and SB09657, which are described in Example 9. […] The next day, cells were split into ND or drug titration conditions to evaluate performance at a range of Endoxifen and concentrations. 72 hours later, supernatant was harvested for quantification of IL-12 by IL-12p70 ELISA. IL-12 levels were read with a spectrophotometer at wavelength 450 nm with wavelength correction to 540 nm according to manufacturer's protocol. A kit-provided standard to calculate detected levels of IL-12 in 100 μL of media harvested from ˜100k cells based on OD.

Molecule	fold activation and induced mCherry levels compared to WT (SB03422) [2]	endoxifen concentration at which IL-12 expression is induced [3] [nM]	other results
CC/C(=C(\c1ccc(O)cc1)c1ccc(OCCN(C)C)cc1)c1ccccc1 [Construct 4-OHT, 4-hydroxytamoxifen]			estimated concentration in the brain, tissue, organs, and solid tumors [1]: 0.4 nM; estimated concentration in the serum [1]: 0.04 nM
CC/C(=C(\c1ccc(O)cc1)c1ccc(OCCNC)cc1)c1ccccc1 [endoxifen]			estimated concentration in the brain, tissue, organs, and solid tumors [1]: 2.5 nM; estimated concentration in the serum [1]: 0.25 nM
CC/C(=C(\c1ccccc1)c1ccc(OCCN(C)C)cc1)c1ccccc1 [tamoxifen]			average peak plasma concentration ([1]; typical clinical dose of tamoxifen): approximately 40 ng/ml
B1			4-OHT concentration at which mCherry reporter expression is activated (U87MG: 1066 cells): about 25 nM; endoxifen concentration at which mCherry reporter expression is activated (U87MG: 1066 cells): about 25 nM
B2	highest fold activation and induced mCherry levels	0.1	
B3	highest fold activation and induced mCherry levels	0.1	
B4	highest fold activation and induced mCherry levels	0.1	
B5	highest fold activation and induced mCherry levels	0.1	
